Assay results reported in IntAct's records for PubMed 22072710.

B1: Protein Vpu (Human immunodeficiency virus type 1 group M subtype B (isolate BH10) (HIV-1)), P69699 (parent)
chain: MQPIQIAIVALVVAIIIAIVVWSIVIIEYRKILRQRKIDRLIDRLIERAEDSGNESEGEISALVEMGVEMGHHAPWDVDDL
B2: Bone marrow stromal antigen 2 (Homo sapiens), Q10589 (parent)
chain: MASTSYDYCRVPMEDGDKRCKLLLGIGILVLLIIVILGVPLIIFTIKANSEACRDGLRAVMECRNVTHLLQQELTEAQKGFQDVEAQAATCNHTVMALMASLDAEKAQGQKKVEELEGEITTLNHKLQDASAEVERLRRENQVLSVRIADKKYYPSSQDSSSAAAPQLLIVLLGLSALLQ
partner: B1 chain

Variants of: B1
Conditions: with bst2_human BST2, Q10589

A10F;A14F;A18F was tested. Which “effect of a mutation on the interaction” value did it give?
Its value is “decreasing interaction”.

Which “effect of a mutation on the interaction” value does the source give for A14F here?
Its value is “decreasing interaction”.

For W22A, which “effect of a mutation on the interaction” value is on record?
Its value is “decreasing interaction”.

Variants of: B1
Conditions: with bst2_human BST2, Q10589
Remark: another data set of the same source

Which “effect of a mutation on the interaction” value does the source give for A10F;A14F;A18F here?
Its value is “disrupting interaction”.

Variants of: B2
Conditions: with vpu_hv1b1 vpu, P69699

For L24I;T45I, which “effect of a mutation on the interaction” value is on record?
Its value is “disrupting interaction strength”.

L41A was tested. Which “effect of a mutation on the interaction” value did it give?
Its value is “disrupting interaction”.

For I26A, which “effect of a mutation on the interaction” value is on record?
Its value is “decreasing interaction”.

Which “effect of a mutation on the interaction” value does the source give for I34A here?
Its value is “disrupting interaction”.

L37A was tested. Which “effect of a mutation on the interaction” value did it give?
Its value is “disrupting interaction”.
